Test results: patent publication US7629323B2, “Manipulation of neuronal ion channels” (Northwestern University, priority 2003, dated 2009)

Key:
[1] = target: Kv3.4 protein (native, rat brain membranes / fast-spiking neurons) (rat) (UniProt Q63734); test: cell-based or functional assay
[2] = test system: Kv3.4 mRNA; test: siRNA suppression of Kv3.4 mRNA in HEK293/Kv3.4 cells, real-time quantitative PCR; type: cell-based, rat; conditions: normalized to transfection efficiency (60%)
Protocol: For example, mammalian cells expressing the potassium channel were tested with siRNA vectors. HEK 293/Kv3.4a cells were generated by stable transfection with a linearized form of pcDNA3/Kv3.4a (Baranauskas et al., Nat Neurosci., 6:258 (2003)), and geneticin selection of a single clone. Kv3.4 expression was confirmed by quantitative PCR and Western blotting. Four target sequences were chosen (#1, #2, #3, and #4, described in more detail below). HEK293/Kv3.4 cells were transfected with these siRNA. To monitor transfection efficiency fluorescein labeled luciferase GL2-F1 siRNA (Dharmacon) was used. In transfected cells, labeled duplexes are detectable as discrete punctate cytoplasmic dots (Holen et al., Nucleic Acids Res., 30:1757 (2002)). Transfection efficiency was 60%, probably, due to high passage number.
Real-time quantitative PCR employing SYBR green fluorescence detection was used to measure Kv3.4 cDNA abundance. As a control for the non-specific effects of siRNA duplexes, siRNA targeting Kv3.1 was used. The differences in the amount of extracted RNA were taken into account by normalization to β-actin. Variability in the amplification during PCR reactions was estimated by running five PCR reactions for the same cDNA sample. […]

[3] = target: T1, Kv3.4a/Kv3.1b heteromeric channels (Rattus norvegicus, UniProt P25122+Q63734); type: cell-based
T1 construct: expressed in transfected cells; host or cells: HEK293
T1 sequence (Q63734 1-625): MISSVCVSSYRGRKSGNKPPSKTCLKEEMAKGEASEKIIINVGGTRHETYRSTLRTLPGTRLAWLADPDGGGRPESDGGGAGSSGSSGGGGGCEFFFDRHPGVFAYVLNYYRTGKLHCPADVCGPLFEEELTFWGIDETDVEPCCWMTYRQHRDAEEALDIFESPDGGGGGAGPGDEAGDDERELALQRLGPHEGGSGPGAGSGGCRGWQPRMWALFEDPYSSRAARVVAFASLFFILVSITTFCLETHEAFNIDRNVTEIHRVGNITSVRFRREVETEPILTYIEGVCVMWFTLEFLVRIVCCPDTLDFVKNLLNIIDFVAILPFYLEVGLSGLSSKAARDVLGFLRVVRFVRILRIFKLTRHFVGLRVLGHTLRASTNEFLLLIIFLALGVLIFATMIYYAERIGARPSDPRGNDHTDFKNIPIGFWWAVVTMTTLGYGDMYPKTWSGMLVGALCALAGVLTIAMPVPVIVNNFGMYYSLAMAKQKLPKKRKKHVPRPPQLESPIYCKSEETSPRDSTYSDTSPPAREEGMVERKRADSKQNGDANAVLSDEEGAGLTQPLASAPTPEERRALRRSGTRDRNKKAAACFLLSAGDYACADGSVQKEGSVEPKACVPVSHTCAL
T1 sequence (P25122 1-585): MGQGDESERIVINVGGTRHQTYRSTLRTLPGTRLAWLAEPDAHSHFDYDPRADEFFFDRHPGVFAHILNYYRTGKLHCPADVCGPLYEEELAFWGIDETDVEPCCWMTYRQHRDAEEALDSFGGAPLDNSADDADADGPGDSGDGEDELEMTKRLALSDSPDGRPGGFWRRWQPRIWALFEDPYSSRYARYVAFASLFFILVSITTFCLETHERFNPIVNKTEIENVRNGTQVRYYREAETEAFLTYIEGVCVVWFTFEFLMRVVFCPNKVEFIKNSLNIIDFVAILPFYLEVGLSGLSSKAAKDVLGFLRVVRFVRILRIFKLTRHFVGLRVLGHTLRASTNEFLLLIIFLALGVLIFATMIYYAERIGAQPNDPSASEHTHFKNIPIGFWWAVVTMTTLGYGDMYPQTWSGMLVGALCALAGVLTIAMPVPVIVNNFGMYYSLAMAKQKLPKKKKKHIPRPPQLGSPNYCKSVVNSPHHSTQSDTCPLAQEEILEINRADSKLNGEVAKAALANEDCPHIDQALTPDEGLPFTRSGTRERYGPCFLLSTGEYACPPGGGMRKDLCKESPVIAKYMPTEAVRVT
From the text: Electrophysiology. Whole-cell recordings used standard techniques^27,28. The internal solution consisted of (in mM): 30-90 K2SO4, 0-60 N-methyl-D-glucamine, 2 MgCl2, 40 HEPES, 5 EGTA, 12 phosphocreatine, 2 Na2ATP, 0.2 Na3GTP, and 0.1 leupeptin, pH 7.2 with H2SO4 (osmolarity 260-270 mOsm/l). The external solution consisted of (in mM): 140 Na-isethionate, 2 KCl, 4 MgCl2, 10 HEPES, 12 glucose and 0.001 TTX, pH 7.35 with NaOH (osmolarity 295-305 mOsm/l). The internal solution for current clamp recordings consisted of (in mM) 110 potassium methylsulphate, 2 MgCl2, 40 HEPES, 5 EGTA, 12 phosphocreatine, 2 Na2ATP, 0.2 Na3GTP, and 0.1 leupeptin, pH 7.2 with H2SO4 (osmolarity 260-270 mOsm/l). In the case of current clamp recordings, TTX was omitted from external solution. For the recordings in the presence of Ca^+2 ions EGTA was omitted from internal solution and 4 mM of MgCl2 was substituted by 2 mM of CaCl2 and 2 mM of MgCl2. […] Recordings were obtained with Axon Instruments 200 patch-clamp amplifier and controlled and monitored with a PC running pClamp software (version 7.0) (Axon Instruments Inc., Union City, Calif.). […] After seal rupture, series resistance (2-10 MΩ) was compensated (75-90%) and periodically monitored. […]
Single cell RT-PCR (scRT-PCR). […] In the case of co-transfection with Kv3.4a and Kv3.1b cDNA, single cell RT-PCR was used to confirm the presence of both mRNAs in the recorded cell. […]

[4] = target: Kv3.1b (rat) (UniProt P25122); test: cell-based or functional assay

## BDS-I (from UniProt P11494 1-43) (peptide)
[1]
  duration of spikes in FS neurons: 53%

## duplex #4: 21-nt double-stranded RNA targeting rat Kv3.4 site D, GGCAGTGTTGAGCCGAAAC (SEQ ID NO:4), position 1825-1843 (second strand not cited, further chemistry not given here; listed as Rattus rattus)
[2]
  estimated suppression of the levels of Kv3.4 mRNA in the transfected cells: 50%

## CC[N+](CC)(CC)CC [TEA, tetraethylammonium]
[3]
  block of K+ currents in Kv3.4a/Kv3.1b co-transfected HEK293 cells: blocked

B1: Kv3.4a (protein, rat, UniProt Q63734 1-625, looked up)
chain: MISSVCVSSYRGRKSGNKPPSKTCLKEEMAKGEASEKIIINVGGTRHETYRSTLRTLPGTRLAWLADPDGGGRPESDGGGAGSSGSSGGGGGCEFFFDRHPGVFAYVLNYYRTGKLHCPADVCGPLFEEELTFWGIDETDVEPCCWMTYRQHRDAEEALDIFESPDGGGGGAGPGDEAGDDERELALQRLGPHEGGSGPGAGSGGCRGWQPRMWALFEDPYSSRAARVVAFASLFFILVSITTFCLETHEAFNIDRNVTEIHRVGNITSVRFRREVETEPILTYIEGVCVMWFTLEFLVRIVCCPDTLDFVKNLLNIIDFVAILPFYLEVGLSGLSSKAARDVLGFLRVVRFVRILRIFKLTRHFVGLRVLGHTLRASTNEFLLLIIFLALGVLIFATMIYYAERIGARPSDPRGNDHTDFKNIPIGFWWAVVTMTTLGYGDMYPKTWSGMLVGALCALAGVLTIAMPVPVIVNNFGMYYSLAMAKQKLPKKRKKHVPRPPQLESPIYCKSEETSPRDSTYSDTSPPAREEGMVERKRADSKQNGDANAVLSDEEGAGLTQPLASAPTPEERRALRRSGTRDRNKKAAACFLLSAGDYACADGSVQKEGSVEPKACVPVSHTCAL
[4]
  fast inactivation time constant of K+ currents in co-transfected HEK293 cells: 38 ms
  mean burst duration (long bursts), single channel recording of co-transfected HEK293 cells: 250 ms
  mean burst duration (short bursts), single channel recording of co-transfected HEK293 cells: 16.2 ms
